Target: C. elegans PGL-3 N-terminal dimerization domain (NtDD), wild type (C. elegans)
Experiment: SEC-MALS

stoichiometry N: 2
Substance: C. elegans PGL-3 N-terminal dimerization domain (NtDD), wild type (domain or fragment)

Reference: paper doi:10.1101/382838
